{"source": "paper PMC6219580", "about": "“Conversion of an amide to a high-energy thioester by Staphylococcus aureus sortase A is powered by variable binding affinity for calcium” (Scientific Reports, 2018)", "binders": {"B1": {"name": "QALPETG-NH2 (peptide)", "peptide": "QALPETG-NH2", "notes": "substrate peptide with the canonical LPXTG sorting motif; also called substrate peptide; source: synthetic peptide, bought: KE Biochem Co. Ltd (China)"}}, "biological_target": "T1, Staphylococcus aureus sortase A C184A mutant (residues 60-206) (Staphylococcus aureus, UniProt Q2FV99 60-206, C184A)", "T1 construct": "Sortase A, Staphylococcus aureus, residues 60-206 (SrtAΔN59) with the active-site mutation C184A; Uniformly 15N-labelled for the NMR titrations; gene cloned into a PET3a vector; also called SrtA C184A; active-site mutant C184A; source: E. coli BL21 (Rosetta), purified (anion exchange, Superdex75 gel filtration)", "T1 sequence (looked up)": "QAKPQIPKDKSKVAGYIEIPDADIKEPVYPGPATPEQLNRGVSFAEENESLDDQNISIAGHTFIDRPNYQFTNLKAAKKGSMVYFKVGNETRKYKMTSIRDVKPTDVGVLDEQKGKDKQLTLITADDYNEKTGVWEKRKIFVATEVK", "assay": "NMR titration; 15N-HSQC titration of the protein-Ca2+ complex at increased concentration with QALPETG-NH2; linear chemical shift changes only, far from saturation", "conditions": "both partners purified", "note": "Where no end group is shown, it is not given here."}
{"binder": "B1", "values": [{"measurement": "Kd", "result": "> 50", "unit": "mM"}]}
